How the values were obtained:
[1] = background statement on prior art; cited from earlier work
[2] = background statement on prior art; cited from earlier work; remark: listed apart in the source

FITC-inulin
solubility in water [1]: only very slightly soluble in water | fluorescence (presence of substance) in lung, liver and kidney sections (rat, 30 mg per kg at intervals of 2 days, sacrificed 4 hours after last administration): considerable fluorescence is observed | effect of deposition in the liver (rat, liver, substance found mainly intracellularly): irreversible cell damage (cell death) | effect of deposition in the lung (rat, lung, substance found in the corpuscles): leads to microstenoses and ultimately to embolism | fluorescence (accumulation) in liver, lung and kidneys (rats sacrificed 6 minutes after the injection, rinsed with saline solution): accumulates in the liver, lung and kidneys | blood pressure after injection into an experimental animal [2]: transient reduction in blood pressure

inulin
solubility in water [1]: only very slightly soluble in water | blood pressure after injection into an experimental animal [2]: transient reduction in blood pressure
